Measurements published in patent publication US11278600B2, “Human alpha-galactosidase variants” (Codexis, Inc., priority 2014, dated 2022).

Legend:
Assay type in all cases: biochemical
[1] = HTP-analysis of yeast culture supernatants, no challenge (MUGal hydrolysis); conditions: activity of the variant/activity of WT GLA (SEQ ID NO: 5), yeast supernatant
Procedure, shortened: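 Activity read as 4-methylumbelliferyl α-D-galactopyranoside hydrolysis: fluorescence (355/448 nm) after sodium carbonate stop, following 30-180 min at 37° C with 2 mM MUGal stock at pH 4.6–4.8. Enzyme source is unchallenged culture supernatant of INVSc1 yeast expressing GLA variants, grown 66-84 h at 30° C.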

[2] = HTP-analysis of supernatants pretreated with acid (MUGal hydrolysis); conditions: challenge at pH 4.2; activity of the variant/activity of WT GLA (SEQ ID NO: 5); yeast supernatant
Procedure, shortened: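 GLA variants were secreted from INVSc1 yeast grown 66-84 h at 30° C. in SD-Ura with 2% glucose; supernatants were mixed with McIlvaine buffer pH 3.3-4.3 and held at 37° C. for 1-3 h. Residual activity on MUGal at pH 4.8 was then measured by fluorescence.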

[3] = HTP-analysis of supernatants pretreated with base (MUGal hydrolysis); conditions: challenge at pH 7.1; activity of the variant/activity of WT GLA (SEQ ID NO: 5); yeast supernatant
Procedure, shortened: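 GLA variants were secreted by transformed INVSc1 yeast grown 66-84 h at 30° C. Supernatants were exposed to neutral-to-basic buffers (pH 7.0-9.7) at 37° C for 1-18 h, then assayed with MUGal in acidic citrate/McIlvaine buffer, with fluorescence read after quenching.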

Molecule	Relative Activity of GLA Variants After No Challenge (NC) [1]	Relative Activity of GLA Variants After Challenge at pH 4.2 [2]	Relative Activity of GLA Variants After Challenge at pH 7.1 [3]
135 (protein, Synthetic Polypeptide sequence of Variant No. 135 of mature Human GLA) LDNGLARTPTMGWLHWERFMCNLDCQEEPDSCISEKLFMEMAELMVSEGWKDAGYEYLCIDDCWMAPQRDSEGRLQADPQRFPHGIRQLANYVHSKGLKLGIYADVGNKTCAGFPGSFGYYDIDAQTFADWGVDLLKFDGCYCDSLENLADGYKHMSLALNRTGRSIVYSCEWPLYMWPFQKPNYTEIRSYCNHWRNFADIDDSWKSIKSILDWTSFNQERIVDVAGPGGWNDPDMLVIGNFGLSWNQQVTQMALWAIMAAPLFMSNDLRHISPQAKALLQDKDVIAINQDPLGKQGYQLRQGDNFEVWERPLSGLAWAVAMINRQEIGGPRSYTIAVASLGKGVACNPACFITQLLPVKRKLGFYEWDSRLRSHINPTGTVLLQLENTMQMSKDLLL	++ (++ = >1.5 to 2.5 relative activity over WT GLA (SEQ ID NO: 5))	+++ (+++ = >2.5 relative activity over WT GLA (SEQ ID NO: 5))	++ (++ = >1.5 to 2.5 relative activity over WT GLA (SEQ ID NO: 5))
140 (protein, Synthetic Polypeptide sequence of Variant No. 140 of mature Human GLA) LDNGLARTPTMGWLHWERFMCNLDCQEEPDSCISEKLFMEMAELMVSEGWKDAGYEYLCIDDCWMAPQRDSEGRLQADPQRFPHGIRQLANYVHSKGLKLGIYADVGNKTCAGFPGSFGYYDIDAQTFADWGVDLLKFDGCYCDSLENLADGYKHMSLALNRTGRSIVYSCEWPLYMWPFQKPNYTEIRQYCNHWRNFADIDDSWKSIKSILDWTSFNQERIVDVAGPGGWNDPDMLVIGNFGLSWNQQVTQMALWAIMAAPLFMSNDLRHISPQAKALLQDKDVIAINQDPLGKQGYQLRQGDNFEVWERPLSGLAWAVAMINRQEIGGPRSYTIAVASLGKGVACNPACFITQLLPVKRKLGFYEWTSRLRSHINPTGTVLLLLENTMQMSKDLLL	++ (++ = >1.5 to 2.5 relative activity over WT GLA (SEQ ID NO: 5))	++ (++ = >1.5 to 2.5 relative activity over WT GLA (SEQ ID NO: 5))	++ (++ = >1.5 to 2.5 relative activity over WT GLA (SEQ ID NO: 5))
142 (protein, Synthetic Polypeptide sequence of Variant No. 142 of mature Human GLA) LDNGLARTPTMGWLHWERFMCNLDCQEEPDSCISEKLFMEMAELMVSEGWKDAGYEYLCIDDCWMAPQRDSEGRLQADPARFPHGIRQLANYVHSKGLKLGIYADVGNKTCAGFPGSFGYYDIDAQTFADWGVDLLKFDGCYCDSLENLADGYKHMSLALNRTGRSIVYSCEWPLYMWPFQKPNYTEIRQYCNHWRNFADIDDSWKSIKSILDWTSFNQERIVDVAGPGGWNDPDMLVIGNFGLSWNQQVTQMALWAIMAAPLFMSNDLRHISPQAKALLQDKDVIAINQDPLGKQGYQLRQGDNFEVWERPLSGLAWAVAMINRQEIGGPRSYTIAVASLGKGVACNPACFITQLLPVKRKLGFYEWTSRLRSHINPTGTVLLQLENTMQMSKDLLL	+ (+ = 0.5 to 1.5 relative activity over WT GLA (SEQ ID NO: 5))	+ (+ = 0.5 to 1.5 relative activity over WT GLA (SEQ ID NO: 5))	+ (+ = 0.5 to 1.5 relative activity over WT GLA (SEQ ID NO: 5))
141 (protein, Synthetic Polypeptide sequence of Variant No. 141 of mature Human GLA) LDNGLARTPTMGWLHWERFMCNLDCQEEPDSCISEKLFMEMAELMVSEGWKDAGYEYLCIDDCWMAPQRDSEGRLQADPQRFPHGIRQLANYVHSKGLKLGIYADVGNKTCAGFPGSFGYYDIDAQTFADWGVDLLKFDGCYCDSLENLADGYKHMSLALNRTGRSIVYSCEWPLYMWPFQKPNYTEIRQYCNHWRNFADIDDSWKSIKSILDWTSFNQERIVDVAGPGGWNDPDMLVIGNFGLSWNQQVTQMALWAIMAAPLFMSNDLRHISPQAKALLQDKDVIAINQDPLGKQGYQLRQGDNFEVWERPLSGLAWAVAMINRQEIGGPRSYTIAVASLGKGVACNPACFITQLLPVKRKLGFYEWTSRLRSHINPTGTVLLQLENTMGMSKDLLL	+ (+ = 0.5 to 1.5 relative activity over WT GLA (SEQ ID NO: 5))	+ (+ = 0.5 to 1.5 relative activity over WT GLA (SEQ ID NO: 5))	+ (+ = 0.5 to 1.5 relative activity over WT GLA (SEQ ID NO: 5))
138 (protein, Synthetic Polypeptide sequence of Variant No. 138 of mature Human GLA) LDNGLARTPTMGWLHWERFMCNLDCQEEPDSCISEKLFMEMAELMVSEGWKDAGYEYLCIDDCWMAPQRDSEGRLQADPQRFPHGIRQLANYVHSKGLKLGIYADVGNKTCAGFPGSFGYYDIDAQTFADWGVDLLKFDGCYCDSLENLADGYKHMSLALNRTGRSIVYSCEWPLYMWPFQKPNYTEIRQYCNHWRNFADIDDSWKSIKSILDWTSFNQERIVDVAGPGGWNDPDMLVIGNFGLSWNQQVTQMALWAIMAAPLFMSNDLRHISPQAKALLQDKDVIAINQDPLGKQGYQLRQGDNFEVWERPLSGLAWAVAMINRQEIGGPRSYTIAVASLGKGVACNPACFITQLLPVKRKLGFYEWTSRLRSHINPTGTVLLHLENTMQMSKDLLL	++ (++ = >1.5 to 2.5 relative activity over WT GLA (SEQ ID NO: 5))	++ (++ = >1.5 to 2.5 relative activity over WT GLA (SEQ ID NO: 5))	++ (++ = >1.5 to 2.5 relative activity over WT GLA (SEQ ID NO: 5))
136 (protein, Synthetic Polypeptide sequence of Variant No. 136 of mature Human GLA) LDNGLARTPTMGWLHWERFMCNLDCQEEPDSCISEKLFMEMAELMVSEGWKDAGYEYLCIDDCWMAPQRDSEGRLQADPQRFPHGIRQLANYVHSKGLKLGIYADVGNKTCAGFPGSFGYYDIDAQTFADWGVDLLKFDGCYCDSLENLADGYKHMSLALNRTGRSIVYSCEWPLYMWPFQKPNYTEIRQYCNHWRNFADIDDSWKSIKSILDWTSFNQERIVDVAGPGGWNDPDMLVIGNFGLSWNQAVTQMALWAIMAAPLFMSNDLRHISPQAKALLQDKDVIAINQDPLGKQGYQLRQGDNFEVWERPLSGLAWAVAMINRQEIGGPRSYTIAVASLGKGVACNPACFITQLLPVKRKLGFYEWTSRLRSHINPTGTVLLQLENTMQMSKDLLL	+ (+ = 0.5 to 1.5 relative activity over WT GLA (SEQ ID NO: 5))	+ (+ = 0.5 to 1.5 relative activity over WT GLA (SEQ ID NO: 5))	+ (+ = 0.5 to 1.5 relative activity over WT GLA (SEQ ID NO: 5))
139 (protein, Synthetic Polypeptide sequence of Variant No. 139 of mature Human GLA) LDNGLARTPTMGWLHWERFMCNLDCQEEPDSCISEKLFMEMAELMVSEGWKDAGYEYLCIDDCWMAPQRDSEGRLQADPQRFPHGIRQLANYVHSKGLKLGIYADVGNKTCAGFPGSFGYYDIDAQTFADWGVDLLKFDGCYCDSLENLADGYKHMSLALNRTGRSIVYSCEWPLYMWPFQKPNYTEIRQYCNHWRNFADIDDSWKSIKSILDWTSFNQERIVDVAGPGGWNDPDMLVIGNFGLSWNQQVTQMALWAIMAAPLFMSNDLRHISPQAKALLQDKDVIAINQDPLGKQGYQLRQGDNFEVWERPLSGLAWAVAMINRQEIGGPRSYTIAVASLGKGVACNPACFITQLLPVKRKLGFYEWTSRLRSHINPTGTVLLILENTMQMSKDLLL	+ (+ = 0.5 to 1.5 relative activity over WT GLA (SEQ ID NO: 5))	+ (+ = 0.5 to 1.5 relative activity over WT GLA (SEQ ID NO: 5))	+ (+ = 0.5 to 1.5 relative activity over WT GLA (SEQ ID NO: 5))
137 (protein, Synthetic Polypeptide sequence of Variant No. 13 of mature Human GLA) LDNGLARTPTMGWLHWERFMCNLDCQEEPDSCISEKLFMEMAELMVSEGWKDAGYEYLCIDDCWMAPQRDSEGRLQADPQRFPHGIRQLANYVHSKGLKLGIYADVGNKTCAGFPGSFGYYDIDAQTFADWGVDLLKFDGCYCDSLENLADGYKHMSLALNRTGRSIVYSCEWPLYMWPFQKPNYTEIRQYCNHWRNFADIDDSWKSIKSILDWTSFNQERIVDVAGPGGWNDPDMLVIGNFGLSWNQQVTQMALWAIMAAPLFMSNDLRHISPQAKALLQDKDVIAINQDPLGKQGYQLRAGDNFEVWERPLSGLAWAVAMINRQEIGGPRSYTIAVASLGKGVACNPACFITQLLPVKRKLGFYEWTSRLRSHINPTGTVLLQLENTMQMSKDLLL	+ (+ = 0.5 to 1.5 relative activity over WT GLA (SEQ ID NO: 5))	+ (+ = 0.5 to 1.5 relative activity over WT GLA (SEQ ID NO: 5))	+ (+ = 0.5 to 1.5 relative activity over WT GLA (SEQ ID NO: 5))
